Laboratory results: the nanobody polyreactivity screen of Harvey et al. (2022)

Assay: yeast display, Sf9 membrane polyspecificity reagent, FACS + sequencing; frameworks hold sequencing errors
How it was run: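 Nanobodies came from a synthetic yeast display library in Saccharomyces cerevisiae BJ5465, induced with galactose for 36–48 hours and stained for 1 hour at 4 °C with 10% biotinylated, detergent-solubilized Sf9 membrane reagent. Cells were enriched on streptavidin microbeads and then FACS-sorted, with low and high (top ~1%) gates set on anti-HA fluorescence for expression and streptavidin fluorescence for reagent binding. Each polyreactivity label reflects the gate a clone came from. Genes were amplified by colony PCR, sequenced by MiSeq 2 × 250 and filtered by CDR length.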

**Q.** For “QVQLVESGGGLVQAGGSLRLSCAASGRIFGVYAMGCYRQATGKERELVATNTSGGSTSYADSVKGRFTISRDNAKNPVYLQMNSLKPEDTAVYYCNAPYSFFWQQMNYWGQGTQETVSS”, which “polyreactivity (PSR sort gate)” value is on record?
**A.** low polyreactivity

**Q.** Which “polyreactivity (PSR sort gate)” value does the source give for “QVQLVESGGGLVQAGGSLRLSCAASGFIFGYYTMGWYRQAPGKERELVASITRGGSTNYADSVKGRFTISRDNAKNTVYIQMNSLKPEDTAVYYCAKRYAQTYSVSRYYYWGQGTQVTVSS” here?
**A.** high polyreactivity

**Q.** For “QVQLGESGGCLVQAGGSLRLSCAASGSPFYTYAMGWYRQAPGKERELVAASSFGGGSTYADSVKGRFTISRDNAKNTLYLQMNSLKPDDTAGYYCNTDLYLYGWYPREVQQYAGGDYWGQGTQVTVSS”, which “polyreactivity (PSR sort gate)” value is on record?
**A.** low polyreactivity

**Q.** With “QVQIVESGGGLVQARGSLRLSCAASGRTFYGYALGWYRQAPGKERELVASIRSRTGSTYYADSVKGRFTISRDNAKNTVYLLMNILKPEDTAVYYCARPYYAKGFAFDYWGLGTQVTVSS” as the sequence, how does the “polyreactivity (PSR sort gate)” value read?
**A.** high polyreactivity

**Q.** With “PVQLVESGGGLVQAGGSLRLSCAASGSNFEYYTMGWYRQAPGKERELVATISRSADRTYYADSVKGRFTISRDYAKNTVYLQMNILKPEDTAVYDCAKLYPRTTQWIYDYWGQGTQVTVSS” as the sequence, how does the “polyreactivity (PSR sort gate)” value read?
**A.** high polyreactivity

**Q.** With “QVQLVESGGGLVQAGGSLRLSCAASGFTFSEYVMGWYRQAPGKERELVAVITSGSSTYYADSVKGRFTISRDNAKNTVYLQMNSLTPEDTAVYYCAAESYFFSPRTREKFDYWGQGTQVTVSA” as the sequence, how does the “polyreactivity (PSR sort gate)” value read?
**A.** low polyreactivity

**Q.** Which “polyreactivity (PSR sort gate)” value does the source give for “QVQLVESGGGLVQAGGSLRLSCAASGRIFVTNAMGGYRQAPGKEREFVAGISFSGDGRTYYADSVKGRFTISRDNAKNTVYLQMNSLKPEDSAVYYCAAPHRSRTHELDYWGQGTQVTVSS” here?
**A.** low polyreactivity

**Q.** With “QVQLVESGGGLVQAGGSLRLSCAASGRIFVSNVMGWYRQAPGKERELVATITWSDGSTYYADSVKGRFTISRDNAKNTVYLQMNSLKPEDTAVYYCNVDQYTYVDLYWEYYFWGQGTQVTVSS” as the sequence, how does the “polyreactivity (PSR sort gate)” value read?
**A.** low polyreactivity

**Q.** With “QVQLVESGGGLVQAGGSLRLSCAASGSIFGRYAMGWYRQAPGKEMELVAAISTGDSTYYADSVKGRFTISRDNAKNTVYLQMNSLKPEDTAVYYCNRRGRRGYDYWGQGTQVTVSS” as the sequence, how does the “polyreactivity (PSR sort gate)” value read?
**A.** high polyreactivity

**Q.** With “QFQLVESGGGLVQAGGSLRLICDASGSIFYPYTIGWYRQAPWKERQLVAAITWDGGNTYYADSVKGRFTISRDNAKNTVYLQMNSLKREDTAVYYCAAVTSGWGTYRMYYWGQGTQETVSS” as the sequence, how does the “polyreactivity (PSR sort gate)” value read?
**A.** high polyreactivity

**Q.** For “QVHLVESGGGLVQAGGSLRLSCAASGYTSKTYAMGWYRQAPGKEMELVAAINWGSGSTYYADSVKGRFTISRDNAKNTVYLQMNSLKPEDTAVYYCAAEGYYNWYVGYGYWGQGTQVTVSS”, which “polyreactivity (PSR sort gate)” value is on record?
**A.** high polyreactivity

**Q.** For “QVHLVESGGGLVQAGGILRLSCAASGLTFRYYTMGWYRQEPGKERELVASITIRGGSTYYADSVKGRFTISRDNAKNTVYLQMNSLKPEDTAVYYCNTRYGFSFGYWGQGTQVTVSS”, which “polyreactivity (PSR sort gate)” value is on record?
**A.** high polyreactivity

**Q.** With “QVQLVESGGGLVQAGGSLRLSCAASGLTFIYYAMGWYRQAPGKERELVARINNGDNTYYADSVKGRFTISRDNAKNTVYLQMNRLNPEDTAVYYCAAARYSRLSRTRPGKYGYWGQGTQVTVSS” as the sequence, how does the “polyreactivity (PSR sort gate)” value read?
**A.** low polyreactivity

**Q.** With “QVQLVESGGGLVQAGGSLRLICAASGFTFGYYPMGWYRQAPGKERELVAAINWSGVNTNYADSVKGRFTISRDNAKNTVYLQMNSVKPEDTAVYYCAADAGYDGYGYWGQGTQVTVSS” as the sequence, how does the “polyreactivity (PSR sort gate)” value read?
**A.** low polyreactivity

**Q.** With “QVQLVESGGGLVQARGSLRLSCAASGRIFYFYAMGWYRQAPGKERELVAAITESTSSTYYADSVKGRFTISRDNAKNTVYLQMNSLKPEDTAVYYCAARVSQWLPYGGSSRYYYWGQGTQVTVSS” as the sequence, how does the “polyreactivity (PSR sort gate)” value read?
**A.** high polyreactivity

**Q.** With “QVQLVESGGGLVQAGGSLRLSCAASGYTFARNAMGWYRQAPGKERELVADINWSGTNTYYADSVKGRFTISRDNAKNTVYLQMNSLKPEDTAVDYCAKDLYFSGYEFDYWGQGTQVTVSS” as the sequence, how does the “polyreactivity (PSR sort gate)” value read?
**A.** low polyreactivity

**Q.** For “QVQLVESGGGLVQAGGSLRLSCAASGSIFYVNDMGWYRQAPGKERELVAAISSTGSTKYADSVKGRFTISRDNAKNTVYLQMNSLKPEDTAVYYCAKEPGHRFEFDYWGQGTQVTVSS”, which “polyreactivity (PSR sort gate)” value is on record?
**A.** low polyreactivity

**Q.** For “QVQLVDSGGGLVQAGGSLRLSCAASGFIFQANAMGWYRQAPGKERELVAAIDDGDSTYADSVKGRFTISRDNAKNTVYLQMNSLKPEDTAVYYCATRRNRSYDYWGQGTLVTVSS”, which “polyreactivity (PSR sort gate)” value is on record?
**A.** low polyreactivity

**Q.** With “QVQLVESGGGLVQAGGSLRLSCAASGRIFVGYAMGWYRPAPGKERELVAAINRSGSCTYYADSVKVRFTISRDNAKITGYLQMNSLKPEDTAVYYCNARSGNRYGPRYDDWGQGTQVTVSS” as the sequence, how does the “polyreactivity (PSR sort gate)” value read?
**A.** high polyreactivity

**Q.** With “QVQLVESGGGLDQAGGSLRLSSAASGRTFYYYAMGWYRKAPGKERELVAAITRSGGSTYYADSVKGRFTISRDNAKNTFYLQMNSLKPEDTAVYYCAVQVRPNSGGTRIHRGGYDYWGQGTQVTVSS” as the sequence, how does the “polyreactivity (PSR sort gate)” value read?
**A.** low polyreactivity

**Q.** With “QVQLVESGGGLVQAGGSLRLSCAASGSTFAYNVMGWYRQAPGKERELVAAITISGTSTYYADSVKGRFTISRDNAKNTVYLQMNSLKPEDTAVYYCAARRDRGRVKFYYWGQGTQVTVSS” as the sequence, how does the “polyreactivity (PSR sort gate)” value read?
**A.** high polyreactivity

**Q.** With “QVQLVESGAGLVQAGGSLRLSCAASGSIFAWYGMGWYRQAPGQERELVAAISTAGSTNYADSVKGRFTISRDNAKNTVYLQMNSLKPEDTAVYYCAKISSWYYPERFDYWGQGTQVTVSS” as the sequence, how does the “polyreactivity (PSR sort gate)” value read?
**A.** low polyreactivity

**Q.** Which “polyreactivity (PSR sort gate)” value does the source give for “QVQLVESGGGLVQAGGSLRLSCAASGSTFAGYVMGWYRQAPGKERELVADISGRGGNTYYADSVKGRFTISRDNAKNTVYLQMNRLKPEDTAVYYCASILSRRYGYWGQGTQVTVSS” here?
**A.** high polyreactivity

**Q.** For “QVQLVESGGGLVQAGGSLLLSCAASGSIFGWYVMGWYRQEPGKERELVAAISSVGSTYYADSVKGRFTISRDNAKNTVYLQMNSLKPEDTAVYYCATDSNPKWDYALDSWGQGTQVTVSS”, which “polyreactivity (PSR sort gate)” value is on record?
**A.** low polyreactivity

**Q.** With “QVQLVESGGGLVQAGGSLRLSCASSGRIFGVYAMGWYRQAPGKERELVAAITRGASTYYADSVKGRFTISRDNAKNTVYLQMNSLKPEDTAVYYCAVSQHRGIYRKYDYWGQGTQVTVSS” as the sequence, how does the “polyreactivity (PSR sort gate)” value read?
**A.** high polyreactivity

**Q.** Which “polyreactivity (PSR sort gate)” value does the source give for “QVQLVESGGGLVQAGGSLRLSCAASGRTFRYYAMGWYRQAPGKERELVAAISSGGNTYYADSVKGRFTISRDNAKNTVYLQMNSLKPEDTAVYYCAAKVHYSAHRFGYWGQGTQVTVSS” here?
**A.** high polyreactivity

**Q.** With “QVHLVDSGGGLVQAGGSLRLSCAASGLIFVSYAMGWYRQEPGKERELVASITDSDSSTYYADSVKGRFTISRDNAKNTVYLQMNSLKPEDTAVYYCATGGRTEIWYPTLDYWGQGTQVTVSS” as the sequence, how does the “polyreactivity (PSR sort gate)” value read?
**A.** low polyreactivity

**Q.** For “QVQLVESGGGLVQAGGSLRLSCAASGRIFWDNDMGWYRQAPGKERELVAAISRRGGSTSYADSVKGRFTISRDNAKNTVYLQMYSLKPEDTAVYYCIVRTRWTRVRRYDYWGQGTQVTVSS”, which “polyreactivity (PSR sort gate)” value is on record?
**A.** high polyreactivity

**Q.** With “QVQLVESGGGLVQAGGSLRLSCAASGRIFRYYAMGWYRQAPGKERELVAAIRGGGSTYYADSVKGRFTISRDNAKNTVYLQMNSLKPEDTAVYYCAAPLIISTLWYKRYDYWGQGTQVTVSS” as the sequence, how does the “polyreactivity (PSR sort gate)” value read?
**A.** high polyreactivity

**Q.** Which “polyreactivity (PSR sort gate)” value does the source give for “QVQLVESGGGLVQAGGSLRLSCAASGRTFAGNAMGWYRQAPGKEREFVASITASGVNTYYADSVKGRFTISRDNAKNTVYLQMNSLKPEDTAVYYCNKRNRWTPFYTYDYWGQGTQVTVSS” here?
**A.** low polyreactivity
